We go through seven molecules from article PMC6795507 (Science Advances, 2019).

The target of data set [1] is head fiber gp14 of phage P68 (Staphylococcus aureus phage P68). Put plainly: cryo-EM structure.
The target in data set [2] is portal protein gp19 of phage P68 (Staphylococcus aureus phage P68). Put plainly: cryo-EM structure.
In data set [3] the target is lower collar protein gp18 of phage P68 (Staphylococcus aureus phage P68). Put plainly: cryo-EM structure.
Data set [4] addresses major capsid protein gp20 of phage P68 (Staphylococcus aureus phage P68). Put plainly: cryo-EM structure.
Data set [5] has as its target tail fiber gp17 of phage P68 (in the virion) (Staphylococcus aureus phage P68). Put plainly: cryo-EM structure.
The data set “crystal structure” concerns the molecule itself. Put plainly: crystal structure.

“And” between values parts separate entries of the source, which are not always exact repeats. Identical values can stand only once.

In general, stoichiometry N refers to the number of molecules, sites or subunits per partner or assembly.

Consider “head fiber gp14 of phage P68 (natural protein)”, for which the stoichiometry N in data set [1] amounted to 3.

With “inner core protein gp22 of phage P68 (natural protein)”, in data set [2], the stoichiometry N is 6. “lower collar protein gp18 of phage P68 (natural protein)”: the stoichiometry N in data set [3] was 12. With “major capsid protein gp20 of phage P68 (natural protein)”, the stoichiometry N in data set [4] is 5 and 6. As to “portal protein gp19 of phage P68 (natural protein)”, the stoichiometry N in data set [2] stood at 12. As to “tail fiber gp17 of phage P68 (in the virion) (natural protein)”, the stoichiometry N in data set [5] was determined as 3.

B1: His-tagged tail fiber protein of phage P68 (recombinant) (natural protein)
chain: MAYNENDFKYFDDIRPFLDEIYKTRERYTPFYDDRADYNTNSKSYYDYISRLSKLIEVLARRIWDYDNELKKRFKNWDDLMKAFPEQAKDLFRGWLNDGTIDSIIHDEFKKYSAGLTSAFALFKVTEMKQMNDFKSEVKDLIKDIDRFVNGFELNELEPKFVMGFGGIRNAVNQSINIDKETNHMYSTQSDSQKPEGFWINKLTPSGDLISSMRIVQGGHGTTIGLERQSNGEMKIWLHHDGVAKLLQVAYKDNYVLDLEEAKGLTDYTPQSLLNKHTFTPLIDEANDKLILRFGDGTIQVRSRADVKNHIDNVEKEMTIDNSENNDNRWMQGIAVDGDDLYWLSGNSSVNSHVQIGKYSLTTGQKIYDYPFKLSYQDGINFPRDNFKEPEGICIYTNPKTKRKSLLLAMTNGGGGKRFHNLYGFFQLGEYEHFEALRARGSQNYKLTKDDGRALSIPDHIDDLNDLTQAGFYYIDGGTAEKLKNMPMNGSKRIIDAGCFINVYPTTQTLGTVQELTRFSTGRKMVKMVRGMTLDVFTLKWDYGLWTTIKTDAPYQEYLEASQYNNWIAYVTTAGEYYITGNQMELFRDAPEEIKKVGAWLRVSSGNAVGEVRQTLEANISEYKEFFSNVNAETKHREYGWVAKHQK
As for B1, the “stoichiometry N” value in “crystal structure” was 3.
